The values that follow come from paper PMC8671415.

The target of test [1] is RAGE peptide (Sino Biological), receptor for advanced glycation end products (UniProt Q15109). Put plainly: SPR; RANK or RAGE (5 μg/ml in 10 mM sodium acetate, pH 5.5) immobilised on the sensor chip; AOPPs 350 to 1050 μg/ml injected, 1050 μg/ml RSA as vehicle; 25 °C, 30 μl/min; PlexArray HT A100. Background: Surface plasmon resonance follows binding to a sensor surface in real time, without labels.

In test [2] the target is RANK peptide (Sino Biological), receptor activator of nuclear factor κ B (UniProt Q9Y6Q6). The description is as above.
UniProt Q9Y6Q6, sequence (Q9Y6Q6 30-212): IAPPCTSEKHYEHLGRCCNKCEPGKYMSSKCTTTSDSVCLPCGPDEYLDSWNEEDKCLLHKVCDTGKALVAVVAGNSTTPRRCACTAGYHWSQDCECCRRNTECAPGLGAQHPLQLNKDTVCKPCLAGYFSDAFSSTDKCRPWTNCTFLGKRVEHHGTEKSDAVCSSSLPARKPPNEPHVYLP

UniProt Q15109, sequence (Q15109 23-342): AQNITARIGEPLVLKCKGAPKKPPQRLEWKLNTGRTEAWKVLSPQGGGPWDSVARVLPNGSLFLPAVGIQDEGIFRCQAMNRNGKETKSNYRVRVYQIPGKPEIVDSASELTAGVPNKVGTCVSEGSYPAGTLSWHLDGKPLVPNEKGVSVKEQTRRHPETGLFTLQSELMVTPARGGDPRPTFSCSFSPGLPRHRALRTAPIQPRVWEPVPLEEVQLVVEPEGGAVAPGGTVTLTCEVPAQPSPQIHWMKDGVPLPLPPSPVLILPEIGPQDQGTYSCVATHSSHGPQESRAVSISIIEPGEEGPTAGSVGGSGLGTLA

On to “Advanced oxidation protein products (AOPPs), prepared from rat serum albumin with hypochlorous acid (from UniProt P02770 25-608)”, for which the Kd – broadly, the concentration at which binding is half-saturated – in test [1] was found to be 1340 nM; in test [2], 3020 nM.
